# Laboratory results from article PMC8369199.
# Columns and labels:
# [1] = biological target: human complement C1q (human) (UniProt P02745); assay: BLI
# trastuzumab (human) = assay: BLI; antibody variant on anti-human Fab-CH1 (Fab2G) sensors; FcγRI 6.25, 12.5, 25, 50 nM, then dissociation in kinetics buffer; 1:1 Langmuir model
# [2] = biological target: MMP-9 cleaved TRZ-Fc4 (human); assay: as above
# [3] = biological target: FcγRIIIa V158 (high-affinity variant of FcγRIIIa) on engineered ADCC reporter effector cells
# Sequence of His-tagged human Fc gamma RI (CD64) (P12314 16-292): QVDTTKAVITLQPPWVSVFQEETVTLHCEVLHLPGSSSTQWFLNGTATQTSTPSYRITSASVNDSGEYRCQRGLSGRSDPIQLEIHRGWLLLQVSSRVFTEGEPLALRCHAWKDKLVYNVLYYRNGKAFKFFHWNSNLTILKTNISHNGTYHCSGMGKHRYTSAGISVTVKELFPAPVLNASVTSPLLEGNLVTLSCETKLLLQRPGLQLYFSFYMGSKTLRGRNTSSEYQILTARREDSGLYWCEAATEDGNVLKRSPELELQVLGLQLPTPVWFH
# Sequence of human complement C1q (human) (P02745 23-245, chain 1 of 3): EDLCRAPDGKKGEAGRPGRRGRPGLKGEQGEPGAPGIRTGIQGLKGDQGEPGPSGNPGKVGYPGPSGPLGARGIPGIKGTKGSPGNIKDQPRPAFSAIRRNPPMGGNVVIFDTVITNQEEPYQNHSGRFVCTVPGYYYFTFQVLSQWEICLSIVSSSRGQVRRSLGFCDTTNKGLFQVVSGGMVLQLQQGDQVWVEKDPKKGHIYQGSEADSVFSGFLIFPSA
# Sequence of human complement C1q (human) (P02746 28-253, chain 2 of 3, further chain): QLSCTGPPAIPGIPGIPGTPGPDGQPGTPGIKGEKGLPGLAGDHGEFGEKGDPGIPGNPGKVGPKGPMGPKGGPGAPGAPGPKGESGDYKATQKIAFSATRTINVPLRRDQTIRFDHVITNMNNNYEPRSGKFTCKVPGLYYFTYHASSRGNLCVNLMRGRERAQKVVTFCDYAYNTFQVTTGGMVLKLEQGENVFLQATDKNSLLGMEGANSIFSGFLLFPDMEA
# Sequence of human complement C1q (human) (P02747 29-245, chain 3 of 3, further chain): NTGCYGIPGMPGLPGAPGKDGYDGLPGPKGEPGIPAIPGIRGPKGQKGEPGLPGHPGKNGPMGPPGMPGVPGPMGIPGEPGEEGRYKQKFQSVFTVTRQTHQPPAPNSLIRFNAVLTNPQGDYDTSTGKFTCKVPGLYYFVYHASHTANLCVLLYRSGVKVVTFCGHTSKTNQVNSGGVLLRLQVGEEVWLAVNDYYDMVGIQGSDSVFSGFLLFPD
substance,measurement,setting,value
trastuzumab,Kd,[1],209 nM
His-tagged human Fc gamma RI (CD64) (from UniProt P12314 16-292) (receptor),Kd,trastuzumab (human),1.3 nM
same,Kd,[2],1.6 nM
trastuzumab (antibody),"ADCC reporter assay, fold induction, SK-BR-3 target cells, with MMP-2/MMP-9 inhibitor, antibody 10 fM to 100 nM; highest induction, reached at 1 nM (fold induction)",[3],57.6
same,"EC50 of ADCC reporter induction, SK-BR-3 target cells",[3],0.039 nM
